Article PMC8251712

Columns and labels:
[1] = target: T1, Myb10-D (Pcold-Myb10-D fusion) (Triticum aestivum, UniProt C0SPG5 1-265); assay: EMSA
[2] = target: T1, Myb10-D (Pcold-Myb10-D fusion); assay: competition
[3] = target: T1, Myb10-D (Pcold-Myb10-D fusion); assay: EMSA; remark: listed apart in the source
[4] = target: T1, Myb10-D (Pcold-Myb10-D fusion); assay: competition; remark: listed apart in the source
[5] = target: T1, Myb10-D (Pcold-Myb10-D fusion); assay: competition; remark: listed apart in the source

B1: NCED probe2988 (SMRE) (dsDNA)
DNA 1: ACGTAATCTTTGAACTTTTCACCAAATAAACATTTCCACC
DNA 2: GGTGGAAATGTTTATTTGGTGAAAAGTTCAAAGATTACGT
binding result [1]: binds

B2: NCED freeprobe2988 (WT competitor) (dsDNA)
DNA 1: ACGTAATCTTTGAACTTTTCACCAAATAAACATTTCCACC
DNA 2: GGTGGAAATGTTTATTTGGTGAAAAGTTCAAAGATTACGT
binding result [2]: binds

B3: SDR 396500 WT (dsDNA)
DNA 1: CCGGATTGAGGGCCGGAGTAGCTGCAGGTGTGATCTCCCG
DNA 2: CGGGAGATCACACCTGCAGCTACTCCGGCCCTCAATCCGG
binding result [3]: no binding

B4: NCED freeprobe2988mu (mutant competitor) (dsDNA)
DNA 1: ACGTAATCTTTGAACTTTTCGGGGGGAAACATTTCCACC
DNA 2: GGTGGAAATGTTTCCCCCCGAAAAGTTCAAAGATTACGT
binding result [4]: no binding

B5: AAO 343200 WT (dsDNA)
DNA 1: CACGAAGATTTCCCAGCTATCATCAATAAGACCAGGTCGC
DNA 2: GCGACCTGGTCTTATTGATGATAGCTGGGAAATCTTCGTG
binding result [3]: no binding

B6: ABA3 269200 WT (dsDNA)
DNA 1: ACATCGTCGTTCATCACCAGCTAGCGAAGCAAACAAGGAG
DNA 2: CTCCTTGTTTGCTTCGCTAGCTGGTGATGAACGACGATGT
binding result [1]: binds

B7: ABA3 269200 mu (dsDNA)
DNA 1: ACATCGTCGTTCATCACGGGGGGGCGAAGCAAACAAGGAG
DNA 2: CTCCTTGTTTGCTTCGCCCCCCCGTGATGAACGACGATGT
binding result [5]: no binding
